Patent US20160106861A1, “AXL ANTIBODY-DRUG CONJUGATE AND ITS USE FOR THE TREATMENT OF CANCER” (PIERRE FABRE MEDICAMENT, priority 2013, published 2016)

Assays:
rhDtk-Fc = target: T1, rhDtk-Fc (Homo sapiens, UniProt Q06418); test: ELISA binding on immobilized rhDtk-Fc protein; settings: starting concentration 5 μg/ml, 1/2 serial dilutions
T1 construct: purchased R and D Systems 859-DK
Protocol: Briefly, the recombinant human Axl-Fc (R and D systems, cat N° 154AL/CF), rhDtk (R and D Systems, cat N° 859-DK) or rhMer-Fc (R and D Systems, cat N° 891-MR) proteins were coated overnight at 4° C. to Immulon II 96-well plates and, after a 1 h blocking step with a 0.5% gelatine solution, 1613F12 was added for an additional 1 h at 37° C. at starting concentration of 5 μg/ml (3.33 10^−8M). Then ½ serial dilutions were done over 12 columns. Plates were washed and a goat anti-mouse (Jackson) specific IgG-HRP was added for 1 h at 37° C. Reaction development was performed using the TMB substrate solution. The isotype control antibody mIgG1 and the commercial anti-Axl Mab 154 antibody were also used in parallel. Coating controls were performed in presence of a goat anti-human IgG Fc polyclonal serum labelled with HRP (Jackson, ref 109-035-098) and/or in presence of a HRP-coupled anti-Histidine antibody (R and D Systems, ref: MAB050H).

membrane Axl receptor = target: T2, membrane Axl receptor (Homo sapiens, UniProt P30530); test: FACS binding on human tumor cells; settings: various human tumor cells
T2 construct: endogenous in cells; host or cells: human tumor cell lines SN12C, Calu-1, MDA-MB435S, MDA-MB231, NCI-H125, MCF7 (Axl-negative), Panc1
T2 sequence (P30530 26-894): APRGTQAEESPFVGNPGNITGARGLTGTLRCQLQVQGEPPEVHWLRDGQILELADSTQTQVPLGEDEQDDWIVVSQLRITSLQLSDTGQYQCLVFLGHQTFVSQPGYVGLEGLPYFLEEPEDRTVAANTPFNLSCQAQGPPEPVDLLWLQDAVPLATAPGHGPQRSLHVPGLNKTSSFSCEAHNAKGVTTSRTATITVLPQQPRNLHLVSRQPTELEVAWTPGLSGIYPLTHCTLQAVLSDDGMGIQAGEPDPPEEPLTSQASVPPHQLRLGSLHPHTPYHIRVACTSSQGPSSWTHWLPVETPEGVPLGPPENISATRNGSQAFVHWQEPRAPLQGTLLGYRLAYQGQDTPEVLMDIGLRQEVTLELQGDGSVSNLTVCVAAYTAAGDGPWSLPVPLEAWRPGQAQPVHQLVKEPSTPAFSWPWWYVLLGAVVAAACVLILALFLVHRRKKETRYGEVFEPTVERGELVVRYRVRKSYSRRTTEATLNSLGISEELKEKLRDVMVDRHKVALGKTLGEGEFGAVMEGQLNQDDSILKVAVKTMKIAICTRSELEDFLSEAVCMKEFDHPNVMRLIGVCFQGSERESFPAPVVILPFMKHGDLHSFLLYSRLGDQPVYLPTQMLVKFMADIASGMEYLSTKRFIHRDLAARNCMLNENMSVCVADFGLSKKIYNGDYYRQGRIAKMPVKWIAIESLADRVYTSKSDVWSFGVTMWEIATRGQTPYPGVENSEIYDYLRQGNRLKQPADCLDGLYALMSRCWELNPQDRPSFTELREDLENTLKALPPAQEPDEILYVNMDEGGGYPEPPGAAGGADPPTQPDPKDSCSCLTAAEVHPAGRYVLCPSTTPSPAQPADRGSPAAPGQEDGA
Protocol: (§1) For cell surface binding studies, two fold serial dilutions of a 10 μg/ml (6.66 10^−8 M) primary antibody solution (1613F12, MAB154 or mIgG1 isotype control 9G4 Mab) are prepared and are applied on 2·10^5 cells for 20 min at 4° C. After 3 washes in phosphate-buffered saline (PBS) supplemented with 1% BSA and 0.01% NaN3, cells were incubated with secondary antibody Goat anti-mouse Alexa 488 ( 1/500° dilution) for 20 minutes at 4° C. After 3 additional washes in PBS supplemented with 1% BSA and […], cells were analyzed by FACS (Facscalibur, Becton-Dickinson). At least 5000 cells were assessed to calculate the mean value of fluorescence intensity.
(§2) 1613F12 dose response curves were prepared. MFIs obtained using the various human tumor cells were then analysed with Prism software.

[1] = tested on: MCF7 human breast tumor cell line; test: FACS binding on MCF7 cells
Protocol: as §1, §2

T1 sequence (Q06418 with tags, fused parts or gaps limits assumed): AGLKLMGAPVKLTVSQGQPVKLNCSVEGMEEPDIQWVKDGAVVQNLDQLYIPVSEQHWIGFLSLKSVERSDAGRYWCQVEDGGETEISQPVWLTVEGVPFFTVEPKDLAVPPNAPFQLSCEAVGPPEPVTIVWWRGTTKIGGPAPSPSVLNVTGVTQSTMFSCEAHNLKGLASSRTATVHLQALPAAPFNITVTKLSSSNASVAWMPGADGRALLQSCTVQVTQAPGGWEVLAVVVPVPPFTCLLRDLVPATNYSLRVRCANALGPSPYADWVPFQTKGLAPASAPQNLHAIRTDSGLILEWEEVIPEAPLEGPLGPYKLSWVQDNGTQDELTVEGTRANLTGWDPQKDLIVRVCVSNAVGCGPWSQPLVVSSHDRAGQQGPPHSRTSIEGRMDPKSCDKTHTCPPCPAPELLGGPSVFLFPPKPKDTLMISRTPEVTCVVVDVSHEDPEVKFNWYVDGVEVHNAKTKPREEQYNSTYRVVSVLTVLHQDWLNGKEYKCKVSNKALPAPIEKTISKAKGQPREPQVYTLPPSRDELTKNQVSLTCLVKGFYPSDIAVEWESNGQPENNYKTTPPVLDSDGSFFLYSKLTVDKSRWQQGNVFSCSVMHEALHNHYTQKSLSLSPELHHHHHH

binding on rhDtk (ELISA) (rhDtk-Fc): does not bind
B1: m1613F12 (murine 1613F12, hybridoma CNCM I-4505) (antibody, V domains shown)
VH: EVHLQQSGAELVKPGASVKLSCTASGFNIRDTYIHWVKQRPEQGLEWIGRLDPANGHTKYGPNFQGRATMTSDTSSNTAYLQLSSLTSEDTAVYYCARGAYYYGSSGLFYFDYWGQGTTLSVSS
VL: DVQITQSPSYLATSPGETITINCRASKSISKYLAWYQEKPGKTNKLLIYSGSTLQSGVPSRFSGSGSGTDFTLTISSLEPEDFAMYFCQQHHEYPLTFGAGTELELK
notes: Murine monoclonal antibody; also called Axl antibody
binding to membrane Axl receptor on human tumor cells (FACS, saturation curves) (membrane Axl receptor): binds specifically to the membrane Axl receptor
binding of Axl receptor on MCF7 (FACS) [1]: No binding of Axl receptor was observed
